Laboratory results as given in patent publication US20200392198A1 (UNIVERSITY OF COPENHAGEN, published 2020).
Ends that are not written are not given here. * marks the point of attachment. Palmitoyl = CCCCCCCCCCCCCCCC(=O)*; Lauroyl = CCCCCCCCCCCC(=O)*

How the values were obtained:
[1] = molecular target: T1, human GLP-2 receptor (human, UniProt O95838 1-553); assay: cell-based or functional assay
T1 sequence (looked up): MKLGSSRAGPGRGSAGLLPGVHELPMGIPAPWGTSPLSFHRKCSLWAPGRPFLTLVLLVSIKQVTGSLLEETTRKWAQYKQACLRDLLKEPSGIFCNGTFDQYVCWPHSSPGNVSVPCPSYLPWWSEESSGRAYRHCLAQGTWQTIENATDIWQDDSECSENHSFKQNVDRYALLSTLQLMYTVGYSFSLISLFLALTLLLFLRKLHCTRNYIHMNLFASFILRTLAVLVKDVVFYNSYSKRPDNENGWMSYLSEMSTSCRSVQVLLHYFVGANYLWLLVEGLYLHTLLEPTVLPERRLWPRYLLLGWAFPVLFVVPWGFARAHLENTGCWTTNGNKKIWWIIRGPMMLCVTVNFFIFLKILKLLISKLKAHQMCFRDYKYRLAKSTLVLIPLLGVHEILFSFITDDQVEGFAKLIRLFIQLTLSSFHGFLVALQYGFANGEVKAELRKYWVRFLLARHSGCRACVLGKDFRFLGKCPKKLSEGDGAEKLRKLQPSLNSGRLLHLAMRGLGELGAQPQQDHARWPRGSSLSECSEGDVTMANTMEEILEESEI

[2] = molecular target: T2, human GIP receptor (human, UniProt P48546 22-466); assay: cell-based or functional assay
T2 sequence (looked up): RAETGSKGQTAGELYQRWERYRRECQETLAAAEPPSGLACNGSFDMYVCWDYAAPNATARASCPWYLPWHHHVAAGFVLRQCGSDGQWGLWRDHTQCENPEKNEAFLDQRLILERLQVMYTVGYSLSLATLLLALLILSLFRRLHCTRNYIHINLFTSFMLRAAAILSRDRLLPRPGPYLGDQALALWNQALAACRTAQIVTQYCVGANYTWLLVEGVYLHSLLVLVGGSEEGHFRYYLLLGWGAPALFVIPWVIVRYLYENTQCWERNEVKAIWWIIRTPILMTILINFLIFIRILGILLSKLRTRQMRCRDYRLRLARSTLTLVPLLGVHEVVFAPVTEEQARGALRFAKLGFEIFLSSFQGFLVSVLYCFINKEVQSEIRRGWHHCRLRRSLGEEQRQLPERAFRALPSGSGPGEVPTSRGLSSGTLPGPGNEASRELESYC

Binder | EC50 (cAMP) [1] | Emax (10 µM), % of native GLP-2 [1] | fold (EC50 vs native GLP-2) [1] | logEC50 (cAMP) [1] | EC50 (cAMP) [2] | Emax (10 µM), % of native GIP [2] | fold (EC50 vs native GIP) [2] | logEC50 (cAMP) [2]
HADGTFISDYSTILDNLAARDFINWLIQTKGK(Palmitoyl)K [GIP-GLP-2 co-agonist 36] | 20 nM | 71% | 17 fold | -7.7 | 0.79 nM | 100% | 8.9 fold | -9.1
HADGTFISDYSTILDNLAARDFINWLIQTKGK(Lauroyl)K [GIP-GLP-2 co-agonist 35] | 2.3 nM | 68% | 1.9 fold | -8.63 | 0.48 nM | 99% | 5.4 fold | -9.32
HADGTFISDYSTILDNLAARDFINWLIQTKGKKNDWKHNITQ [GIP-GLP-2 co-agonist 34] | 1.2 nM | 94% | 0.96 fold | -8.94 | 0.1 nM | 100% | 1.1 fold | -10
